Data from patent US20050043234A1 (published 2005).
Several values for one entry are separate records, joined by “and”; a condition that tells them apart may be missing. Equal entries are not always repeated.

B1: zFGF5 (ligand)
chain: EENVDFRIHVENQTRARDDVSRKQLRLYQLYSRTSGKHIQVLGRRISARGEDGDKYAQLLVETDTFGSQVRIKGKETEFYLCMNRKGKLVGKPDGTSKECVFIEKVLENNYTALMSAKYSGWYVGFTKKGRPRKGPKTRENQQDVHFMKRYPKGQPELQKPFKYTTVTKRSRRIRPTHPA
B2: FGFR1α-IIIc/Fc (Fc fusion, not shown: a dimerising Fc or GST; small tags and cut ends)
chain: RPSPTLPEQAQPWGAPVEVESFLVHPGDLLQLRCRLRDDVQSINWLRDGVQLAESNRTRITGEEVEVQDSVPADSGLYACVTSSPSGSDTTYFSVNVSDALPSSEDDDDDDDSSSEEKETDNTKPNRMPVAPYWTSPEKMEKKLHAVPAAKTVKFKCPSSGTPNPTLRWLKNGKEFKPDHRIGGYKVRYATWSIIMDSVVPSDKGNYTCIVENEYGSINHTYQLDVVERSPHRPILQAGLPANKTVALGSNVEFMCKVYSDPQPHIQWLKHIEVNGSKIGPDNLPYVQILKTAGVNTTDKEMEVLHLRNVSFEDAGEYTCLAGNSIGLSHHSAWLTVLEALEERPAVMTSPLYLE
B3: FGFR3α-IIIc/Fc (Fc fusion, not shown: a dimerising Fc or GST; small tags and cut ends)
chain: ESLGTEQRVVGRAAEVPGPEPGQQEQLVFGSGDAVELSCPPPGGGPMGPTVWVKDGTGLVPSERVLVGPQRLQVLNASHEDSGAYSCRQRLTQRVLCHFSVRVTDAPSSGDDEDGEDEAEDTGVDTGAPYWTRPERMDKKLLAVPAANTVRFRCPAAGNPTPSISWLKNGREFRGEHRIGGIKLRHQQWSLVMESVVPSDRGNYTCVVENKFGSIRQTYTLDVLERSPHRPILQAGLPANQTAVLGSDVEFHCKVYSDAQPHIQWLKHVEVNGSKVGPDGTPYVTVLKTAGANTTDKELEVLSLHNVTFEDAGEYTCLAGNSIGFSHHSAWLVVLPAEEELVEADEAGSVYAG

Legend:
Experiment in all cases: cell-based or functional assay
[1] = molecular target: FGFR3α-IIIc
[2] = molecular target: FGFR2α-IIIc
[3] = molecular target: FGFR2α-IIIb
[4] = molecular target: FGFR1α-IIIc
[5] = molecular target: FGFR3α-IIIb
[6] = molecular target: FGFR3α-IIIc; remark: listed apart in the source
[7] = molecular target: FGFR2α-IIIc; remark: listed apart in the source
[8] = molecular target: FGFR1α-IIIb
[9] = molecular target: B1

With B1 the “EC50 of cell proliferation response” value [1] was ~1 ng/mL and ~2 ng/mL, the “EC50 of cell proliferation response” value [2] was ~10 ng/mL and ~20 ng/mL and the “Alamar Blue Units (cell proliferation), zFGF5 at 1.6 ng/ml” value (shortened to “Alamar Blue Units … at 1.6 ng/ml”) [3] was 0.2 Alamar Blue Units. The “Alamar Blue Units (cell proliferation), zFGF5 at 3.1 ng/ml” value (“Alamar Blue Units … at 3.1 ng/ml” for short) [3] was 0.06 Alamar Blue Units, the “Alamar Blue Units (cell proliferation), zFGF5 at 6.2 ng/ml” value (“Alamar Blue Units … at 6.2 ng/ml” below) [3] was 0 Alamar Blue Units and the “Alamar Blue Units (cell proliferation), zFGF5 at 12.5 ng/ml” value (shortened to “Alamar Blue Units … at 12.5 ng/ml”) [3] was 0.4 Alamar Blue Units. For the same binder, the “Alamar Blue Units (cell proliferation), zFGF5 at 25 ng/ml” value (from here on “Alamar Blue Units … at 25 ng/ml”) [3] was 0.2 Alamar Blue Units, the “Alamar Blue Units (cell proliferation), zFGF5 at 50 ng/ml” value (shortened to “Alamar Blue Units … at 50 ng/ml”) [3] was 0.5 Alamar Blue Units and the “Alamar Blue Units (cell proliferation), zFGF5 at 100 ng/ml” value (“Alamar Blue Units … at 100 ng/ml” below) [3] was 1.3 Alamar Blue Units. The “Alamar Blue Units (cell proliferation), zFGF5 at 200 ng/ml” value (shortened to “Alamar Blue Units … at 200 ng/ml”) [3] was 1.3 Alamar Blue Units, the “Alamar Blue Units … at 1.6 ng/ml” value [4] was 2.6 Alamar Blue Units and the “Alamar Blue Units … at 3.1 ng/ml” value [4] was 4.2 Alamar Blue Units. The “Alamar Blue Units … at 6.2 ng/ml” value [4] was 14.2 Alamar Blue Units, the “Alamar Blue Units … at 12.5 ng/ml” value [4] was 29.9 Alamar Blue Units and the “Alamar Blue Units … at 25 ng/ml” value [4] was 86 Alamar Blue Units. The “Alamar Blue Units … at 50 ng/ml” value [4] was 224 Alamar Blue Units, the “Alamar Blue Units … at 100 ng/ml” value [4] was 488 Alamar Blue Units and the “Alamar Blue Units … at 200 ng/ml” value [4] was 912 Alamar Blue Units. For the same binder, the “Alamar Blue Units … at 1.6 ng/ml” value [5] was 0 Alamar Blue Units, the “Alamar Blue Units … at 3.1 ng/ml” value [5] was 0 Alamar Blue Units and the “Alamar Blue Units … at 6.2 ng/ml” value [5] was 0 Alamar Blue Units. The “Alamar Blue Units … at 12.5 ng/ml” value [5] was 0 Alamar Blue Units, the “Alamar Blue Units … at 25 ng/ml” value [5] was 1.4 Alamar Blue Units and the “Alamar Blue Units … at 50 ng/ml” value [5] was 19 Alamar Blue Units. For the same binder, the “Alamar Blue Units … at 100 ng/ml” value [5] was 189 Alamar Blue Units, the “Alamar Blue Units … at 200 ng/ml” value [5] was 472 Alamar Blue Units and the “Alamar Blue Units … at 1.6 ng/ml” value [6] was 1400 Alamar Blue Units. For the same binder, the “Alamar Blue Units … at 3.1 ng/ml” value [6] was 2000 Alamar Blue Units, the “Alamar Blue Units … at 6.2 ng/ml” value [6] was 2580 Alamar Blue Units and the “Alamar Blue Units … at 12.5 ng/ml” value [6] was 3200 Alamar Blue Units. For the same binder, the “Alamar Blue Units … at 25 ng/ml” value [6] was 3760 Alamar Blue Units, the “Alamar Blue Units … at 50 ng/ml” value [6] was 3960 Alamar Blue Units and the “Alamar Blue Units … at 100 ng/ml” value [6] was 4120 Alamar Blue Units. The “Alamar Blue Units … at 200 ng/ml” value [6] was 4200 Alamar Blue Units, the “Alamar Blue Units … at 1.6 ng/ml” value [7] was 241 Alamar Blue Units and the “Alamar Blue Units … at 3.1 ng/ml” value [7] was 480 Alamar Blue Units. For the same binder, the “Alamar Blue Units … at 6.2 ng/ml” value [7] was 715 Alamar Blue Units, the “Alamar Blue Units … at 12.5 ng/ml” value [7] was 977 Alamar Blue Units and the “Alamar Blue Units … at 25 ng/ml” value [7] was 1310 Alamar Blue Units. For the same binder, the “Alamar Blue Units … at 50 ng/ml” value [7] was 1520 Alamar Blue Units, the “Alamar Blue Units … at 100 ng/ml” value [7] was 1720 Alamar Blue Units and the “Alamar Blue Units … at 200 ng/ml” value [7] was 1790 Alamar Blue Units. The “Alamar Blue Units … at 1.6 ng/ml” value [8] was 0 Alamar Blue Units, the “Alamar Blue Units … at 3.1 ng/ml” value [8] was 1.7 Alamar Blue Units and the “Alamar Blue Units … at 6.2 ng/ml” value [8] was 1.3 Alamar Blue Units. The “Alamar Blue Units … at 12.5 ng/ml” value [8] was 0 Alamar Blue Units, the “Alamar Blue Units … at 25 ng/ml” value [8] was 10.9 Alamar Blue Units and the “Alamar Blue Units … at 50 ng/ml” value [8] was 0 Alamar Blue Units. The “Alamar Blue Units … at 100 ng/ml” value [8] was 0 Alamar Blue Units and the “Alamar Blue Units … at 200 ng/ml” value [8] was 0 Alamar Blue Units.

For B2, the “Cell Proliferation (percent of control), BAF3/FGFR3α-IIIc cells with zFGF5, soluble receptor at 0 fold-excess” value [9] was 100 percent of control, the “Cell Proliferation (percent of control), BAF3/FGFR3α-IIIc cells with zFGF5, soluble receptor at 7.5 fold-excess” value [9] was 92 percent of control and the “Cell Proliferation (percent of control), BAF3/FGFR3α-IIIc cells with zFGF5, soluble receptor at 15.4 fold-excess” value [9] was 96 percent of control. The “Cell Proliferation (percent of control), BAF3/FGFR3α-IIIc cells with zFGF5, soluble receptor at 31 fold-excess” value [9] was 99 percent of control, the “Cell Proliferation (percent of control), BAF3/FGFR3α-IIIc cells with zFGF5, soluble receptor at 62.5 fold-excess” value [9] was 104 percent of control and the “Cell Proliferation (percent of control), BAF3/FGFR3α-IIIc cells with zFGF5, soluble receptor at 125 fold-excess” value [9] was 101 percent of control. The “Cell Proliferation (percent of control), BAF3/FGFR3α-IIIc cells with zFGF5, soluble receptor at 250 fold-excess” value [9] was 100 percent of control, the “Cell Proliferation (percent of control), BAF3/FGFR3α-IIIc cells with zFGF5, soluble receptor at 500 fold-excess” value [9] was 102 percent of control and the “Cell Proliferation (percent of control), BAF3/FGFR3α-IIIc cells with zFGF5, soluble receptor at 1000 fold-excess” value [9] was 92.3 percent of control.

For B3, the “Cell Proliferation (percent of control), BAF3/FGFR3α-IIIc cells with zFGF5, soluble receptor at 0 fold-excess” value [9] was 100 percent of control, the “Cell Proliferation (percent of control), BAF3/FGFR3α-IIIc cells with zFGF5, soluble receptor at 0.8 fold-excess” value [9] was 85 percent of control and the “Cell Proliferation (percent of control), BAF3/FGFR3α-IIIc cells with zFGF5, soluble receptor at 1.6 fold-excess” value [9] was 66 percent of control. The “Cell Proliferation (percent of control), BAF3/FGFR3α-IIIc cells with zFGF5, soluble receptor at 3.2 fold-excess” value [9] was 37 percent of control, the “Cell Proliferation (percent of control), BAF3/FGFR3α-IIIc cells with zFGF5, soluble receptor at 6.3 fold-excess” value [9] was 5 percent of control and the “Cell Proliferation (percent of control), BAF3/FGFR3α-IIIc cells with zFGF5, soluble receptor at 12.5 fold-excess” value [9] was 1 percent of control. The “Cell Proliferation (percent of control), BAF3/FGFR3α-IIIc cells with zFGF5, soluble receptor at 25 fold-excess” value [9] was 0.2 percent of control, the “Cell Proliferation (percent of control), BAF3/FGFR3α-IIIc cells with zFGF5, soluble receptor at 50 fold-excess” value [9] was 0 percent of control and the “Cell Proliferation (percent of control), BAF3/FGFR3α-IIIc cells with zFGF5, soluble receptor at 100 fold-excess” value [9] was 0 percent of control.
